Consider ten molecules from patent US20260234247A1 (published 2026).

In general, koff refers to the rate constant with which the complex falls apart. Read a low koff as a long-lived complex.

Assay [1] deals with T1, human LILRA2 (human, UniProt Q8N149 24-449).
T1 construct: bought protein coated for ELISA; also called hLILRA2
In words: ELISA, OD450, antibody at 200 nM; + = 2-fold over ISO. On the technique in general: An ELISA detects its analyte on a solid surface through an enzyme-linked reagent.
T1 sequence (Q8N149 24-449 limits assumed): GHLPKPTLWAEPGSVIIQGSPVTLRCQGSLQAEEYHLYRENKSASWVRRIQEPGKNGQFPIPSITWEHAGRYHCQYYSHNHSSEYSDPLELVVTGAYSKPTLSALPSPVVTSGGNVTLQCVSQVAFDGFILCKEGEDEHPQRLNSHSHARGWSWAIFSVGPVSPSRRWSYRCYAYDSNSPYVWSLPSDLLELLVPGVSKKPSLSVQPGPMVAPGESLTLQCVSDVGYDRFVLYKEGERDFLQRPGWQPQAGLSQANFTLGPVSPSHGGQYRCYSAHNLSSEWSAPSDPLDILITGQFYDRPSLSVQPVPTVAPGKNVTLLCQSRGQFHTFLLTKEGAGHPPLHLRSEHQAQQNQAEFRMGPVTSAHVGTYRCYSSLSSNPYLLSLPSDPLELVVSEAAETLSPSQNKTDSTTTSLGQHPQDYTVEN
Description: (§1) To further confirm binding affinity, selected clones were assayed in ELISA or FACS in a range of testing concentrations.

The target of assay [2] is T2, human LILRA1 (human, UniProt O75019 17-461, limits assumed).
T2 construct: bought protein coated for ELISA; also called hLILRA1
The assay is described as above.
T2 sequence (O75019 17-461 limits assumed): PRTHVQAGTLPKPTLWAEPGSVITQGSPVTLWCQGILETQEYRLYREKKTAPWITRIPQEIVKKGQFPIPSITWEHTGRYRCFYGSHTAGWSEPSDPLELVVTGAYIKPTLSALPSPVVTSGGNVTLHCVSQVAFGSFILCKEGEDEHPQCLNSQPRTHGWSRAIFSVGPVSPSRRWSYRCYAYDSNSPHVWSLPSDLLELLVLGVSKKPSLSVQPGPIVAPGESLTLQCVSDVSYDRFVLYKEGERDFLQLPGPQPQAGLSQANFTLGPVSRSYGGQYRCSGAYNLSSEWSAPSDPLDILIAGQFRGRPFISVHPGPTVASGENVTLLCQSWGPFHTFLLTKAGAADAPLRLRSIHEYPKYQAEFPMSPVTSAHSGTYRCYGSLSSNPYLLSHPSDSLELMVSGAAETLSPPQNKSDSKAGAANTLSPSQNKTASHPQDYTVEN
Description: as §1

In assay [3] the target is T3, human LILRA3 (human, UniProt Q8N6C8 24-439).
T3 construct: bought protein coated for ELISA; also called hLILRA3
Described as above.
T3 sequence (Q8N6C8 24-439 limits assumed): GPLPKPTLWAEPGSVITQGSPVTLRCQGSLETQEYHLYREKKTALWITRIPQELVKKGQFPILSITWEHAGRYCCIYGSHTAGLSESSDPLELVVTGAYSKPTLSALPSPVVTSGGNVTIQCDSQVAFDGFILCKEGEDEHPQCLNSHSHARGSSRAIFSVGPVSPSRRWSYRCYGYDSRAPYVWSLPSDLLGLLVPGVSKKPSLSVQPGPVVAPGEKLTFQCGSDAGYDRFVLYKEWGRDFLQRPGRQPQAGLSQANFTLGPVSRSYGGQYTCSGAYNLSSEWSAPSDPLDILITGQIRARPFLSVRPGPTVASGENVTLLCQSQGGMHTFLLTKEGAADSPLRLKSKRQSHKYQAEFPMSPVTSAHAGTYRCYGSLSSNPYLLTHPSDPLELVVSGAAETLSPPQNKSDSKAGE
Description: as §1

In assay [4] the target is T4, human LILRA1 (human, UniProt O75019 17-461, limits assumed).
T4 construct: Bought protein; also called hLILRA1
In words: ELISA, 200 nM antibody, OD450; + = 2-fold over ISO.
T4 sequence (O75019 17-461 limits assumed): as the sequence (O75019 17-461 limits assumed) above
Description: as §1

The target of assay [5] is T5, human LILRA2 (human, UniProt Q8N149 24-449).
T5 construct: Bought protein; also called hLILRA2
Description: ELISA, 200 nM antibody, OD450; + = 2-fold over ISO.
T5 sequence (Q8N149 24-449 limits assumed): as the sequence (Q8N149 24-449 limits assumed) above
Description: as §1

In assay [6] the target is T6, human LILRA3 (human, UniProt Q8N6C8 24-439).
T6 construct: bought protein coated for ELISA; also called hLILRA3
In words: ELISA, OD450, antibody at 200 nM; + = 2-fold over ISO. This is another data set of the same source.
T6 sequence (Q8N6C8 24-439 limits assumed): as the sequence (Q8N6C8 24-439 limits assumed) above
Description: as §1

Assay [7] deals with T7, human LILRA1 (human, UniProt O75019 17-461, limits assumed).
T7 construct: bought protein coated for ELISA; also called hLILRA1
The assay is described as above. The source holds these as a separate data set.
T7 sequence (O75019 17-461 limits assumed): as the sequence (O75019 17-461 limits assumed) above
Description: as §1

The next assay deals with T8, human LILRB3 (human, UniProt O75022 24-443).
T8 construct: bought protein coated for ELISA; also called hLILRB3
The description is as above.

The target in the next assay is T9, human LILRB5 (human, UniProt O75023 24-458).
T9 construct: bought protein coated for ELISA; also called hLILRB5
T9 sequence (O75023 24-458 limits assumed): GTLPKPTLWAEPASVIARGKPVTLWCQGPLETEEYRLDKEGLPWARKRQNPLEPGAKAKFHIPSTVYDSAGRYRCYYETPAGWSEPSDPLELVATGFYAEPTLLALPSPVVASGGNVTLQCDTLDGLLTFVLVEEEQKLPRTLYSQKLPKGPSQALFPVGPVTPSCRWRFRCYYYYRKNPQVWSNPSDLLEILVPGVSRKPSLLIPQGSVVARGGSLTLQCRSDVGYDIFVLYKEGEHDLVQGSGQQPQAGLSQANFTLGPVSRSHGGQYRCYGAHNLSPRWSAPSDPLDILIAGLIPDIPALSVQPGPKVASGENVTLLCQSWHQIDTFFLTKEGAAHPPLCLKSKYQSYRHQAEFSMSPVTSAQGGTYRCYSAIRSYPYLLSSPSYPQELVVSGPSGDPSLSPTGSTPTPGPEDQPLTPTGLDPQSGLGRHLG
The description is as above.

Another assay addresses T10, human LILRA4 (human, UniProt P59901 24-446).
T10 construct: bought protein coated for ELISA; also called hLILRA4
Described as above.

In another assay the target is T11, human LILRB1 (human, UniProt Q8NHL6 24-458, limits assumed).
T11 construct: also called hLILRB1
T11 sequence (Q8NHL6 24-458 limits assumed): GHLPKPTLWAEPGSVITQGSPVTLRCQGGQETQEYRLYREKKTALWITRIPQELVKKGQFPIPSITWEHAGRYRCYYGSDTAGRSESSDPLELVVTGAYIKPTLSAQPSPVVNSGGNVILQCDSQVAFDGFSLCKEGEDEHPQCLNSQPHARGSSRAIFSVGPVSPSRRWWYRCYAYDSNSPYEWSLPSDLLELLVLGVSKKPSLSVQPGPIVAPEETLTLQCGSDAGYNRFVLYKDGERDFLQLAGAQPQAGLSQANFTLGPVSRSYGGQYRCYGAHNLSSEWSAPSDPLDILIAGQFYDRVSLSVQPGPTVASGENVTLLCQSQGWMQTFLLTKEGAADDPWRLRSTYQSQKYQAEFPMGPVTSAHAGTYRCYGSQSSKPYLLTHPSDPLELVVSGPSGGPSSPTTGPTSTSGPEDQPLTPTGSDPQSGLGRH
In words: Octet off-rate ranking. (Biolayer interferometry detects binding as a change in optical thickness at a sensor tip.)

The target in assay [8] is T12, human LILRA1 (human, UniProt O75019 17-461, limits assumed).
T12 construct: also called hLILRA1
In words: Octet off-rate ranking.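 Also: antibody dissociation rate constants against cynomolgus LILRB2 plus human LILRB1, LILRB2, LILRA1 and LILRA2, measured on an Octet instrument to rank binding.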
T12 sequence (O75019 17-461 limits assumed): as the sequence (O75019 17-461 limits assumed) above
Description: (§2) Binding affinity of anti-LILRB1 and anti-LILRB2 antibodies against human LILRB1, LILRB2, LILRA1, LILRA2 and cynomolgus LILRB2 was ranked by measuring dissociation rate constant (Kdis) using the Octet system.

In assay [9] the target is T13, human LILRA2 (human, UniProt Q8N149 24-449, limits assumed).
T13 construct: also called hLILRA2
T13 sequence (Q8N149 24-449 limits assumed): as the sequence (Q8N149 24-449 limits assumed) above
Description: Octet off-rate ranking.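 Also: antibody dissociation rate constants against cynomolgus LILRB2 plus human LILRB1, LILRB2, LILRA1 and LILRA2, measured on an Octet instrument to rank binding.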
Description: as §2

The target in assay [10] is T14, Biotinylated LILRB1 (UniProt Q8NHL6 24-458, limits assumed, biotinylated (sites not given)). In words: epitope binning ELISA, coated 1 ug/ml; competitor 15G8 at 20 ug/ml.
T14 sequence (Q8NHL6 24-458 limits assumed): as the sequence (Q8NHL6 24-458 limits assumed) above
The target of assay [11] is T14, Biotinylated LILRB1. In words: epitope binning ELISA, coated 1 ug/ml; competitor LK-RB1-9 at 20 ug/ml.
Description: (§3) Binding epitope of a subset of anti-LILRB1 and anti-LILRB2 antibodies was analyzed by epitope binning ELISA. Briefly, a panel of testing antibodies were coated onto ELISA plate. 50 ul/well Biotinylated LILRB1 or LILRB2 and 50 ul/well of competing antibodies were added to the coated plate and incubated at 37° C. for 1 hour. After Streptavidin-HRP (1:5000) incubation and TMB development, the plates were read at 450 nm using Molecular device spectra max plus384.
Assay [12] concerns the target T14, Biotinylated LILRB1. Description: epitope binning ELISA, coated 1 ug/ml; competitor LK-RB1-12 at 20 ug/ml.
Description: as §3
Assay [13] deals with T14, Biotinylated LILRB1. Description: epitope binning ELISA, coated 1 ug/ml; competitor LK-RB1-16 at 20 ug/ml.
Description: as §3
Assay [14] concerns the target T14, Biotinylated LILRB1. In words: epitope binning ELISA, coated 1 ug/ml; competitor LK-RB1-31 at 20 ug/ml.
Description: as §3
The target of assay [15] is T14, Biotinylated LILRB1. In words: epitope binning ELISA, coated 1 ug/ml; competitor LK-RB1-33 at 20 ug/ml.
Description: as §3
For assay [16], the target named is T14, Biotinylated LILRB1. Description: epitope binning ELISA, coated 1 ug/ml; competitor LK-RB1-47 at 20 ug/ml.
Description: as §3
Assay [17] concerns the target T14, Biotinylated LILRB1. In words: epitope binning ELISA, coated 1 ug/ml; competitor hz73D1.v1 at 20 ug/ml.
Description: as §3

T10 sequence (P59901 24-446 limits assumed): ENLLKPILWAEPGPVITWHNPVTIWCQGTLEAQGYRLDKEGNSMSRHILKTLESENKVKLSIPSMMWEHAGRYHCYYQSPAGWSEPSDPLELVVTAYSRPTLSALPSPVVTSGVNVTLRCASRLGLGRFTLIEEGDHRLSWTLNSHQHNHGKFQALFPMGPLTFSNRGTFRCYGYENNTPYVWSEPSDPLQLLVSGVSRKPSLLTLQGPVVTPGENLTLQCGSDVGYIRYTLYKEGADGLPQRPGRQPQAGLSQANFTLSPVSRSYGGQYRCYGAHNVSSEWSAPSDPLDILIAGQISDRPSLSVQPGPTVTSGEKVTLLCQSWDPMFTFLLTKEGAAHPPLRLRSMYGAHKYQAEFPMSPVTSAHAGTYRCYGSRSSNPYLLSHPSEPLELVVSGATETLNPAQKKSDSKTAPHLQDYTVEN
Description for human LILRA4: as §1
Description for human LILRB1: as §2
Description for human LILRB3: as §1
Description for human LILRB5: as §1

B1: LK-RB1-13 (antibody, human IgG4 S228P, kappa, V domains shown)
VH: QVTLKESGPGIVKPSQTLSLTCSFSGFSLSISGTGIGWIRQPSGKGLEWLAHIWWDDDKYYNPSLKSQVTISKDTSTKQVFLNITSVDTADTATYYCTRTELGRGDFWGQGTSVTVSS
VL: DILLTQSPAILSVSPGDRVSFSCRASQSTGTNIHWYQRRTNGSPRLLIKYGSESISGIPSRFSGSGTGTDFTLTINSVESEDIADYYCQQSYSWPYTFGGGTKLEIKR
notes: anti-LILRB1 antibody
Take B1: the binding result in the assay with human LILRA2 [1] is recorded as “binds”.

B2: LK-RB1-15 (antibody, human IgG4 S228P, kappa, V domains shown)
VH: QVTLKESGPGIVKPSQTLSLTCSFSGFSLSISGTGIGWIRQPSGKGLEWLAHIWWDDDKYYNPSLKSQVTISKDTSTKQVFLNITSVDTADTATYYCTRTELGRGDFWGQGTSVTVSS
VL: DILLTQSPAILSVSPGDRVSFSCRASQSIGTNIHWYQRRTNGSPRLLIKYGSESISGIPSRFSGSGTGTDFTLTINSVESEDIADYYCQQSYSWPYTFGGGTKLEIKR
notes: anti-LILRB1 antibody
Turning to B2, the binding result in the assay with human LILRA1 [2] and with human LILRA3 [3] was “binds” in each case.

B3: LK-RB2-29 (antibody, human IgG4 S228P, kappa, V domains shown)
VH: QVQLQQSGAELARPGASVKLSCKASGYTFTSYWMQWVKQRPGQGLEWIGAIYPGDGDTRYTQKFKGKATLTADKSSSTAYMQLSSLASEDSAVYYCARGYYGSSYADYFDYWGQGTTLTVSS
VL: DIQMTQSPASLSASVGETVTITCRASGNIHNYLAWYQQKQGKSPQLLVYNAKTLADGVPSRFSGSGSGTQYSLKINSLQPEDFGSYYCQHFWSTPPTFGGGTKLEIKR
Consider B3, for which the binding result in the assay with human LILRA1 [4] and in the assay with human LILRA2 [5] was “binds” throughout.

B4: LK-RB1-45 (antibody, human IgG4 S228P, kappa, V domains shown)
VH: QVQLQQSGTELARPGASVKLSCKASGYTFTNFWMHWIKQRPGQGLEWIGYVNPTSDYTKYNQKFKDKATLTADKSSSTAYMQLNSLTYEDSAVYYCTRSSLYDTNYVFDSWGQGTTLTVSS
VL: DILLTQSPAILSVSPGERVSFSCRASQSIGRSIHWYQQRTNGSPRLLIKYASESISGIPSRFSGGGSGTDFTLSISNVESEDIADYYCQQSNNWPFTFGSGTKLEIKR
notes: anti-LILRB1 clone from mouse hybridoma
Take B4: the binding result with human LILRA3 [6] is on record as “binds”.

B5: LK-RB1-39 (antibody, human IgG4 S228P, kappa, V domains shown)
VH: EVQLQQSGAELVRPGASVKLSCTASGFNIKDDYVHWVNQRPEQGLEWIGWIDPENGDTGYASKFQDKATITADTSSNTAYLHLSSLTSEDTAVYYCTTTRWTGSYWGQGTTLTVSS
VL: QIVLTQSPAIMSASPGEKVTITCSASSSVNYMHWFQQKPGSSPKLWIYSTANLASGVPARFSGSGSGTSYSLTISRMEAEDAATYYCQQRSSYPPTWTFGGGTKLEIKR
notes: as for B4
With B5, the binding result with human LILRA1 [7], in the assay with human LILRA3 [6], with human LILRB3 and in the assay with human LILRB5 was “binds” throughout.

B6: LK-RB1-2 (antibody, human IgG4 S228P, kappa, V domains shown)
VH: QIQLVQSGPELKKPGETVKISCKASGYTFTTYGVSWVKQAPGKGLKWMGWINTYSGVSTYSDDFKGRFAFSLETSASTAYLQIINLKNEDAATYFCSRRRRTYDGYLSFDYWGQGTTLTVSS
VL: DIQMTQSPGSLSASVGETVTITCGASENIYGALNWFQRKPGKSPQLLIYGATNLADGMSSRFSGSGSGRQYSLQISSLRPDDVATYYCQNVLTTPWTFGGGTKVEIKR
notes: anti-LILRB1 antibody
Regarding B6, in the assay with human LILRA4, the binding result is recorded as “binds”.

B7: LK-RB1-9 (antibody, human IgG4 S228P, kappa, V domains shown)
VH: QIQLVQSGPELKKPGETVKISCTASGYTFTTYGMSWVKQAPGKGLKWMGWINTYSGVPTYADDFKGRFAFSLETSASTAYLEINNVKNEDTATYFCARRRRTYHGYLCFDYWGQGTTLTVSS
VL: DIQMTQSPVSLSASVGETVTITCETSENIYGALNWYQRKQGKSPQLLIYGATNLADGMSSRFSGSGSGRQYSLEISSLHPDDVASYYCQNVLNTPWTFGGGTKLEIKR
Regarding B7, the koff in the assay with human LILRB1 worked out at 0.000162 s⁻¹; with human LILRA1 [8], 0.000155 s⁻¹; with human LILRA2 [9], 0.000885 s⁻¹. Besides, the Inhibition % with Biotinylated LILRB1 [10] stood at 48.6%; with Biotinylated LILRB1 [11], 73.9%; with Biotinylated LILRB1 [12], 92.1%; with Biotinylated LILRB1 [13] it was 21.9%; with Biotinylated LILRB1 [14], 10.2%; with Biotinylated LILRB1 [15], 67.4%. Besides, the Inhibition % with Biotinylated LILRB1 [16] worked out at 89.1%; in the assay with Biotinylated LILRB1 [17] it was 88.1%.

B8: LK-RB2-41 (antibody, human IgG4 S228P, kappa, V domains shown)
VH: EVQLQLSGPELVKPGASVKMSCKASGYTFTDYNMHWVKQSHGKSLEWIGYINPNNGGTTYNQKFKGKATLTVNKSSSTAYMELRSLTSEDSAVYYCARAPYYGSSYLLAYWGQGTLVTVSA
VL: DIVMTQSHKFMSTSVGDRVSITCKASQDVSTAVAWYQQKPGQSPKLLIYSASYRYTGVPDRFTGSGSGTDFTFTISSVQAEDLAIYYCQQHYSIPWTFGGGTKLEIKR
Consider B8, for which the binding result in the assay with human LILRA1 [4] and with human LILRA2 [5] was “binds” in each case.

B9: LK-RB1-11 (antibody, human IgG4 S228P, kappa, V domains shown)
VH: QVTLKESGPGILQPSQTLSLTCSFSGFSLKTSGMSVGWIRQPSGKGLEWLAHIWWNDDKYYNPVLKGRLTISKDTSNNLVFLKIASVVSTDTATYYCVRYGNSHGYWYFDVWGTGTTVTVSS
VL: NIVLTQSPASLAVSLGQRATISCRASESVDSYGNNFIHWYQQKPGQPPKVLIYYASNLEAGVPARFSGSGSRTDFTLTIDPVEAEDAATYYCQQNNEDPYTFGGGTKLEIER
notes: anti-LILRB1 antibody
With B9, the binding result with human LILRA1 [2] and with human LILRA3 [3] was “binds” throughout.

B10: 15G8 (antibody, human IgG4 S228P, kappa, V domains shown)
VH: DVQLQGSGPGLVKPSETLSLTCSVTGYSITSGYYWNWIRQFPGKKLEWMGYISYDGSNNYNPSLKNRITISRDTSKNQFSLKLNSVTAADTATYYCAHGYSYYYAMDAWGQGTSVTVSS
VL: DIQMTQSPSSLSASVGDRVTITCRTSQDISNYLNWYQQKPGKAVKLLISYTSRLHSGVPSRFSGSGSGTDYTLTISSLQPEDFATYYCQQGNTLPTFGQGTKLEIKR
As to B10, the koff with human LILRB1 is 0.00389 s⁻¹; with human LILRA1 [8], 0.000278 s⁻¹; in the assay with human LILRA2 [9], 0.00117 s⁻¹. In addition, the Inhibition % with Biotinylated LILRB1 [10] was 73%; with Biotinylated LILRB1 [11], 92.1%; with Biotinylated LILRB1 [12] it was 3.58%; with Biotinylated LILRB1 [13], -0.72%; with Biotinylated LILRB1 [14], -0.67%; in the assay with Biotinylated LILRB1 [15] it was 90.5%. Also, the values for the Inhibition % with Biotinylated LILRB1 [16] and with Biotinylated LILRB1 [17] were 13.5% and -0.56%, respectively.
